# Reference: paper PMC11382572, “Structural and kinetic insights into the stereospecific oxidation of R-2,3-dihydroxypropanesulfonate by DHPS-3-dehydrogenase from Cupriavidus pinatubonensis” (Chemical Science, 2024)
# B1: DHPS-3-dehydrogenase (CpHpsN) (Cupriavidus pinatubonensis JMP134) (protein)
# chain: MISYLKKAEKTPQTETATAQKVVTEMLAEIQARGKDAVRQYAKQLDGWSGDIVLTPDQIREQTKDVPAGVRADIDFAIRQVTDFALAQRESLKEFSVELHPGVTAGQRVLPVNVVGCYAPAGRYAHIASAYMGVATAKAAGVKTVVACSSPFRGQGIHPHVLYAFQAAGADVIMALGGVQAIASMAYGLFTGKPADVVVGPGNKFVAEAKRSLYGQVGIDVFAGPSEVAVIADETADPAIVASDLVGQAEHGHESPAWLFTTSRDLADRVMALVPELIAKLPPTARDAATAAWRDYGEVILCGTREEVVEISDRYASEHLEVHTADLDWWLANLTCYGSLFLGEETTVAFGDKTSGPNHVLPTKGAARYSGGLSVHKFMKTLTWQQMTREATRQIGQVTARISRLEGMEAHARTADDRMAKYFPNASFEMGTPVEV
# What was measured:
# Assay type in all cases: biochemical, Cupriavidus pinatubonensis
# purified protein = substrate: O=S(=O)(O)C[C@H](O)CO; assay: purified protein; conditions: Zn2+, NAD+
# [1] = substrate: O=CC(O)CS(=O)(=O)O; assay: Michaelis-Menten kinetics (apparent KM); LCMS product; conditions: Zn2+, NAD+
# [2] = substrate: NC(=O)c1ccc[n+]([C@@H]2O[C@H](COP(=O)([O-])OP(=O)(O)OC[C@H]3O[C@@H](n4cnc5c(N)ncnc54)[C@H](O)[C@@H]3O)[C@@H](O)[C@H]2O)c1; assay: X-ray crystal structure by soaking (open conformation); Michaelis-Menten kinetics (apparent KM); conditions: Zn2+ nonproductive complex; nicotinamide group disordered, modelled with zero occupancy; varied: cofactor
protein,measurement,setting,value
B1,Km,purified protein,1300 ± 150 µM
same,kcat/Km,purified protein,750 ± 200 M⁻¹ s⁻¹
same,Km,[1],360 ± 60 µM
same,kcat/Km,[1],8600 ± 830 M⁻¹ s⁻¹
same,Km,[2],470 ± 100 µM
same,kcat/Km,[2],3400 ± 1100 M⁻¹ s⁻¹
